One series concerns the target T1, DinB (DNA polymerase IV) (Escherichia coli, UniProt Q47155 1-351).
T1 sequence: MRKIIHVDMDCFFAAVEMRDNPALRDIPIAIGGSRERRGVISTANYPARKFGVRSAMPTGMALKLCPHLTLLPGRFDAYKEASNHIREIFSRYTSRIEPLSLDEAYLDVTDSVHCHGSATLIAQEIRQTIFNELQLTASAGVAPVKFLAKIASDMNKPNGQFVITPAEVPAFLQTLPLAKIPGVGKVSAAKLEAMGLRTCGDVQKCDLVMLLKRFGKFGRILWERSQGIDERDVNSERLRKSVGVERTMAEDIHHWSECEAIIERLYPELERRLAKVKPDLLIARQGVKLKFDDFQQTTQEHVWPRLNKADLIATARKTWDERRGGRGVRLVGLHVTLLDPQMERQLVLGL
Nature of the series: NMR titration; BLI: 50 mM KPi pH 6.5, 50 mM NaCl, 10 mM MgSO4, 1 mM TCEP, 303 K; NMR titrations: NMR buffer (composition in Supplementary Table S2, not fully given), 298 K. Particulars: protein: recombinant; tags: N-terminal His6; blunt; each strand also partly self-complementary (called self-complementary in text).

The next series concerns the target T2, DinBΔPAD (Escherichia coli, UniProt Q47155 1-230).
T2 sequence: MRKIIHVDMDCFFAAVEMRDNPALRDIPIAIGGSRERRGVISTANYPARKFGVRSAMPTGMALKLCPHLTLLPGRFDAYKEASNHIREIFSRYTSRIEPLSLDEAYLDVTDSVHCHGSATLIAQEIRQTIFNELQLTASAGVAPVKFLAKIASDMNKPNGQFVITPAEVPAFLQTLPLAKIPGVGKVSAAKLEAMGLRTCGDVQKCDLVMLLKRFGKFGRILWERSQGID
Described as above. Particulars: protein: recombinant; tags: N-terminal His6 (stop codon at 231; tag inferred from parent plasmid); blunt; each strand also partly self-complementary (called self-complementary in text).

B1: 18mer dsDNA (dsDNA)
DNA 1: TCTAGGGTCCTAGGACCC
DNA 2: GGGTCCTAGGACCCTAGA
On to B1, for which the binding result in the series with DinB (DNA polymerase IV) and in the series with DinBΔPAD was “binds” each time.

The values above are taken from article PMC10359629, “Thumb-domain dynamics modulate the functional repertoire of DNA-Polymerase IV (DinB)”.
